This note sets out measurements from article PMC3045386, “Insights into the Function of the CRM1 Cofactor RanBP3 from the Structure of Its Ran-Binding Domain” (PLoS ONE, 2011).

Assay [1] concerns the target T1, RanQ69L:GTP (human, UniProt P62826 1-216, Q69L). Nature of the assay: ITC; 800 µM RanBP3 RBD (residues 310–454) titrated into 70 µM RanQ69L:GTP; 25°C; 300 mM NaCl, 5 mM MgCl2, 10 mM TRIS pH 7.4; single-site binding model; Kd,obs. The conditions noted are these: both partners purified.
Assay [2] deals with T1, RanQ69L:GTP. Put plainly: ITC; 530 µM RanQ69L:GTP titrated into 48 µM full-length RanBP3; 25°C; 300 mM NaCl, 5 mM MgCl2, 10 mM TRIS pH 7.4; single-site binding model; Kd,obs. The conditions noted are these: both partners purified. (Isothermal titration calorimetry measures the heat released or taken up as one component is titrated into another.)

B1: RanBP3 RBD (residues 310–454) (domain or fragment)
chain: KATARKCLLEKVEVITGEEAESNVLQMQCKLFVFDKTSQSWVERGRGLLRLNDMASTDDGTLQSRLVMRTQGSLRLILNTKLWAQMQIDKASEKSIRITAMDTEDQGVKVFLISASSKDTGQLYAALHHRILALRSRVEQEQEAK
As usually defined, the Kd is a measure of binding affinity in units of concentration. As usually defined, the stoichiometry N is the number of molecules, sites or subunits per partner or assembly. For B1, in the assay with RanQ69L:GTP [1], binding was put at a Kd of 14 ± 0.3 µM and the “stoichiometry N” value stood at 0.93 ± 0.01.

B2: Human full-length RanBP3 (residues 1–499; isoform B) (natural protein)
chain: MADLANEEKPAIAPPVFVFQKDKGQKRSAGGSSPEGGEDSDREDGNYCPPVKRERTSSLTQFPPSQSEERSSGFRLKPPTLIHGQAPSAGLPSQKPKEQQRSVLRPAVLQAPQPKALSQTVPSSGTNGVSLPADCTGAVPAASPDTAAWRSPSEAADEVCALEEKEPQKNESSNASEEEACEKKDPATQQAFVFGQNLRDRVKLINESVDEADMENAGHPSADTPTATNYFLQYISSSLENSTNSADASSNKFVFGQNMSERVLSPPKLNEVSSDANRENAAAESGSESSSQEATPEKESLAESAAAYTKATARKCLLEKVEVITGEEAESNVLQMQCKLFVFDKTSQSWVERGRGLLRLNDMASTDDGTLQSRLVMRTQGSLRLILNTKLWAQMQIDKASEKSIRITAMDTEDQGVKVFLISASSKDTGQLYAALHHRILALRSRVEQEQEAKMPAPEPGAAPSNEEDDSDDDDVLAPSGATAAGAGDEGDGQTTGST
In the assay with RanQ69L:GTP [2], B2 came in with a Kd of 15 ± 3 µM.
